This is an account of results in patent US20150306058A1, “COMPOSITION COMPRISING A SINGLE VARIABLE DOMAIN AND CAMOSTAT MESYLATE (CM)” (Glaxo Group Limited, priority 2012, published 2015).

A short description of data set [1]: Transition midpoint (Tm) of dAbs, thermal stability (DSC). It is filed as physicochemical. As to the method:
“Transition midpoint” or “Tm” is the temperature where 50% of the single variable domain is in its native conformation and the other 50% is denatured. In an embodiment, the single variable domain has a high Tm. In particular the Tm is greater than or equal to about 66° C. The thermal stability of a single variable domain, including the Tm, may be determined using Differential Scanning calorimetry (DSC).
For these Examples, high Tm dAb™ refers to a dAb™ with a Tm of 66° C., and low Tm dAb™ refers to a dAb™ with a Tm of 56° C.

The nature of data set [2]: Recovery of DOM101 from gut tissue and plasma after intra-duodenal administration, TNFR1-specific MSD assay. The class given is in vivo, Han Wistar rats. As to the method: Han Wistar rats were dosed with 1 mg DOM101 in the presence or absence of 100 mg CM, to determine if CM preserved the dAb™ in the gastrointestinal tract. Rats were briefly anaesthetised by isoflurane anaesthetic and a midline abdominal incision made to facilitate location of the duodenum for direct intra-duodenal injection (500 μl) of the dose formulations. Following dosing, the abdominal incisions were closed and the rats allowed to recover prior to their return to study cages. Direct dosing into the duodenum bypassed the acidic conditions of the gastric juices in the stomach and allowed for direct analysis of pharmacokinetics in the intestinal tract.
Animals were culled at the following time-points: 0.5, 1.5, 3, 5, 7 and 18 hours (three animals per group).
Blood samples were taken and the intestinal tract dissected out and divided into its constituent parts: duodenum (×2), jejunum (×6), ileum, caecum, colon (×2), rectum.
(§1) Intestinal samples were homogenised using the GentleMACS™ Dissociator in lysis buffer containing detergent and protease inhibitors. Samples were screened for DOM101 using a TNFR1-specific MSD™ assay. In brief, MSD plates were coated with TNFR1-Fc. Plates were washed and blocked with bovine serum albumin. Tissue samples were diluted and added to the plate, along with a standard curve of dAb™, then incubated at room temperature to allow binding. Plates were washed and a sulfo-tag-conjugated anti-Vh antibody was added to the wells. After incubation, the plate was washed and incubated with MSD read buffer. The resulting electrochemiluminescence signal was read on a Sector Imager 6000.
Results are expressed as nanograms per gram of tissue in FIG. 6.

Data set [3] in a line: Recovery of DOM101 from the large intestine after intra-colonic administration. It is filed as in vivo, Han Wistar rats. Conditions: 1 mg DOM101 intra-colonic. As to the method:
as §1
Han Wistar rats were dosed with 1 mg DOM101 in the presence or absence of CM, to determine if camostat mesylate also preserved the dAb™ in the large intestinal tract. In brief, rats were anaesthetised by isoflurane anaesthetic, a midline abdominal incision made to facilitate location of the colon and 500 ul dose of the dose formulations injected directly into the colon. Following dosing, the abdominal incisions were loosely closed and the rats maintained under isoflurane anaesthesia and monitored for the duration of the experiment. […]
Samples were homogenised and screened as stated in Example 4. Results are expressed as nanograms per gram of tissue in FIG. 7.

Setting [4] is: 1 mg DOM101 intra-duodenal, absence of CM.

B1: DOM6: domain antibody (single variable domain), Vh framework, SEQ ID NO: 4 (protein)
VHH: EVQLLESGGGLVQPGGSLRLSCAASGFTFSEGTMWWVRQAPGKGLEWVSAILAAGSNTYYADSVKGRFTISRDNSKNTLYLQMNSLRAEDTAVYYCAKKRQERDGFDYWGQGTLVTVSS
modifications: Amino acid sequence identified using molecular biology techniques.
For B1, the “Tm (° C.)” value in data set [1] was determined as 55.8 °C.

B2: DOM101: TNFR1 specific dAb, SEQ ID NO: 6 (protein)
VHH: EVQLLESGGGLVQPGGSLRLSCAASGFTFAHETMVWVRQAPGKGLEWVSHIPPDGQDPFYADSVKGRFTISRDNSKNTLYLQMNSLRAEDTAVYHCALLPKRGPWFDYWGQGTLVTVSS
modifications: Amino acid sequence identified using molecular biology techniques.
Regarding B2, in data set [2] (setting [4]), the “amount of dAb detectable in the ileum (in words)” value is reported as “small amounts”, the “time at which dAb was detectable in the duodenum” value is on record as 0.5 h and the “time up to which dAb was detectable in the jejunum” value is recorded as “up to 1.5 h”. The “time after dosing at which dAb was detectable throughout the GI tract” value in data set [2] (1 mg DOM101 intra-duodenal, presence of 100 mg CM) stood at 7 h. Moreover, the level in plasma entry in data set [2] (after intra-duodenal dosing, data not shown) was “less than 0.1 % of the total dose”. For the same molecule, the “dAb levels at 3 h in the absence of CM compared with the two CM groups (in words)” value in data set [3] (absence of CM, particularly caecum and rectum) is given as “substantially reduced”. The “dAb levels in caecum, colon and rectum at 0.5 h (in words)” value in data set [3] (presence or absence of CM, rectum except 10 mg camostat group) was “High levels”.

B3: DOM3: domain antibody (single variable domain), Vh framework, SEQ ID NO: 3 (protein)
VHH: EVQLLESGGGLVQPGGSLRLSCAASGFTFAHETMVWVRQAPGKGLEWVSHIPPDGQDPFYADSVKGRFTISRDNSKNTLYLQMNSLRAEDTAVYHCALLPKRGPWFDYWGQGTLVTVSS
modifications: Amino acid sequence identified using molecular biology techniques.
Consider B3, for which the “Tm (° C.)” value in data set [1] was found to be 65 °C.

B4: DOM2: domain antibody (single variable domain), Vh framework, SEQ ID NO: 2 (protein)
VHH: EVQLLESGGGLVQPGGSLRLSCAASGFTFRNFGMGWVRQAPGKGLEWVSWIISSGTETYYADSVKGRFTISRDNSKNTLYLQMNSLRAEDTAVYYCAKSLGRFDYWGQGTLVTVSS
modifications: Amino acid sequence identified using molecular biology techniques.
On to B4, for which the “Tm (° C.)” value in data set [1] came out at 55.9 °C.

B5: DOM7: domain antibody (single variable domain), Vh framework, SEQ ID NO: 5 (protein)
VHH: EVQLLESGGGLVQPGGSLRLSCAASGSTFTDDRMWWVRQAPGKGLEWVSAIQPDGHTTYYADSVKGRFTISRDNSKNTLYLQMNSLRAEDTAVYYCAEQDVKGSSSFDYWGQGTLVTVSS
modifications: Amino acid sequence identified using molecular biology techniques.
B5: the “Tm (° C.)” value in data set [1] came out at 50.6 °C.

B6: DOM1: domain antibody (single variable domain), Vκ framework, SEQ ID NO: 1 (antibody, V domains shown)
VL: DIQMTQSPSSLSASVGDRVTITCRASQDIYLNLDWYQQKPGKAPKLLINFGSELQSGVPSRFSGSGYGTDFTLTISSLQPEDFATYYCQPSFYFPYTFGQGTKVEIKR
modifications: Amino acid sequence identified using molecular biology techniques.
With B6, the “Tm (° C.)” value in data set [1] was found to be 55 °C.
